According to patent US20180074053A1 (priority 2016, published 2018):
Non-standard residues stand in square brackets, D forms with d. No end group written: not given here.

Key:
[1] = tested on: C57/BL/6J mice and diabetic mouse models; conditions: previous studies (Zhang 2013; U.S. Pat. No. 8,664,177); cited from earlier work
MRGD = MRGD (Homo sapiens, UniProt Q8TDS7); assay: Calcium mobilization in MRGD over-expressing cells; type: cell-based; design: host or cells: ChemiScreen over-expressing cell line, given as 'HEK 293T cells (Chem-1, EMD Millipore)'; conditions: at 5 mM, highest dose used; Example 4
MRGD, sequence (Q8TDS7 whole entry): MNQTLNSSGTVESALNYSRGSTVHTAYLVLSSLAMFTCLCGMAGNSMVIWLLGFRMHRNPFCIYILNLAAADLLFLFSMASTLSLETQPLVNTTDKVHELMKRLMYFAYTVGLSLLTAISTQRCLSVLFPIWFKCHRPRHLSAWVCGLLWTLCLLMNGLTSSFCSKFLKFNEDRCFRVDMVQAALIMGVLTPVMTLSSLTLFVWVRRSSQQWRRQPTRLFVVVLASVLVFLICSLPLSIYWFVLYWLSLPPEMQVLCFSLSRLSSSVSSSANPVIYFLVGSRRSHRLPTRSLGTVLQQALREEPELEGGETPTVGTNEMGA
Method: Cells were grown in DMEM medium containing 10% FBS, 1× non-essential amino acids (Gibco #111450-040), 20 mM HEPES and 250 μg/mL Geneticin® (Gibco #10131-035). Cells were harvested with 0.25% Trypsin/EDTA (Gibco #25200-056), pelleted at 1,200×g for 6 minutes and resuspended in DMEM media described above minus Geneticin®. The cells were seeded at 4×10^4 cells/well/100 μL of a clear bottom/black 96-well plate and grown overnight. The calcium mobilization assays was performed using Screen Quest Fluo-8 Medium Removal Calcium Assay Kit (AAT Bioquest #36308) according to the manufacturer's protocol. Briefly, cells were washed with 100 μL volume of Hank's balanced salt solution, 20 mM HEPES, pH 7.4 and loaded with a buffer containing HBSS, 20 mM HEPES, 1× Pluronic F127 and the Fluo-8 NW dye. The cells were incubated for 30 minutes at 37° C. followed by a 30 minute room temperature incubation. Drug stocks were prepared at 100× concentration and diluted 1:33 in HBSS, 20 mM HEPES, pH 7.4 in a 96-well plate (Corning #3641). Calcium mobilization was measured using the FlexStation 3 (Molecular Devices) at excitation wavelength of 490 nm and emission wavelength of 525 nm. Fluorescence was measured for 180 seconds at 5 second intervals with the addition of compound at a 1:3 dilution after 15 seconds. Peak fluorescence values were calculated using SoftMax Pro 5 (Molecular Devices). The fluorescence values obtained from control wells without cells are subtracted from wells containing treated cells to correct for background. The ratio of fluorescence values of treated cells to vehicle control wells was used to calculate fold activity of the compounds.
MRGD cells (EMD Millipore, MA) were treated with either β-alanine, or alamandine at various concentrations (FIG. 10) and calcium mobilization was monitored using a FlexStation 3 Microplate Reader (Molecular Devices) as described in Example 4.

MC4 = MC4 (UniProt P32245 1-332); assay: cell-based or functional assay
MC4, sequence (P32245 whole entry): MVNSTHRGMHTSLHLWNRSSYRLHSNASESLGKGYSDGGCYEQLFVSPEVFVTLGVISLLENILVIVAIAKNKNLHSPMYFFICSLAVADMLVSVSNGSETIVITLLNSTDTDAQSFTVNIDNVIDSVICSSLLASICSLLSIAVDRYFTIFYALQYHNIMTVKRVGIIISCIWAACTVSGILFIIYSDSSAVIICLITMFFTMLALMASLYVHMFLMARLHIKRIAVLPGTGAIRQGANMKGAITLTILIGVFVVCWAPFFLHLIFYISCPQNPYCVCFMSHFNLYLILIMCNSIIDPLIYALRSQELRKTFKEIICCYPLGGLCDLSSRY

MC5 = MC5 (UniProt P33032 1-325); assay: cell-based or functional assay
MC5, sequence (P33032 whole entry): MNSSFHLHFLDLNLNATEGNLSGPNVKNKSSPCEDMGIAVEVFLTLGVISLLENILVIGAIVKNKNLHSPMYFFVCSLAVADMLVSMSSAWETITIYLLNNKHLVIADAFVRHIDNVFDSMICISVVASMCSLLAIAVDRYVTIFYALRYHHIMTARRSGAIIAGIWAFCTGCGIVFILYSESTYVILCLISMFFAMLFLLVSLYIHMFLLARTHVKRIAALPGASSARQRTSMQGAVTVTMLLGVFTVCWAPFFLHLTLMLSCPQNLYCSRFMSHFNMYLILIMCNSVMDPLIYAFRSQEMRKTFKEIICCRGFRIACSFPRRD

MCHR1 = MCHR1 (UniProt Q99705 1-353, limits assumed); assay: cell-based or functional assay
MCHR1, sequence (Q99705 whole entry): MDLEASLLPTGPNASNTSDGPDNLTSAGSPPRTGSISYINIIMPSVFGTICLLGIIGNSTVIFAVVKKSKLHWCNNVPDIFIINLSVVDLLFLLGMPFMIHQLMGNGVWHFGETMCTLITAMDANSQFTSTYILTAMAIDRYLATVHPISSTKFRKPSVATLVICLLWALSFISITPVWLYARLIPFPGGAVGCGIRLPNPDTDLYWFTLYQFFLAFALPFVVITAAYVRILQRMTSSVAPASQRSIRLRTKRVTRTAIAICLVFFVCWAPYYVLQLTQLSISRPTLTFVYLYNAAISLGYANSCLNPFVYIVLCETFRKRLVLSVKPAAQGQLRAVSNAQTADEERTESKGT

[2] = target: T1, MAS-related G-protein-coupled receptor member D (MRGD) (human, UniProt Q8TDS7 1-321); assay: cell-based or functional assay
T1 sequence (Q8TDS7 whole entry): as the sequence (Q8TDS7 whole entry) above

MRGX2 = target: T2, MRGX2 (UniProt Q96LB1 1-330, limits assumed); assay: cell-based or functional assay
T2 sequence (looked up): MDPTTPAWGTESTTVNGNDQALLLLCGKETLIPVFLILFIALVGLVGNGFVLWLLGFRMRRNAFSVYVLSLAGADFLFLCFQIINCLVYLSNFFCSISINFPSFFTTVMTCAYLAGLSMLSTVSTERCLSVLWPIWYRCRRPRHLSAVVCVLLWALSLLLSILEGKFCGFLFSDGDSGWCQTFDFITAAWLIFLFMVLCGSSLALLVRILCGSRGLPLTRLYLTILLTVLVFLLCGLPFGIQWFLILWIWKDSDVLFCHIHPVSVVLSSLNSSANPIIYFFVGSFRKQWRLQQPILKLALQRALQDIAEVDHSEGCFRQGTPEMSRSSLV

NMUR1 = target: T3, NMUR1 (UniProt Q9HB89 1-426, limits assumed); assay: cell-based or functional assay
T3 sequence (looked up): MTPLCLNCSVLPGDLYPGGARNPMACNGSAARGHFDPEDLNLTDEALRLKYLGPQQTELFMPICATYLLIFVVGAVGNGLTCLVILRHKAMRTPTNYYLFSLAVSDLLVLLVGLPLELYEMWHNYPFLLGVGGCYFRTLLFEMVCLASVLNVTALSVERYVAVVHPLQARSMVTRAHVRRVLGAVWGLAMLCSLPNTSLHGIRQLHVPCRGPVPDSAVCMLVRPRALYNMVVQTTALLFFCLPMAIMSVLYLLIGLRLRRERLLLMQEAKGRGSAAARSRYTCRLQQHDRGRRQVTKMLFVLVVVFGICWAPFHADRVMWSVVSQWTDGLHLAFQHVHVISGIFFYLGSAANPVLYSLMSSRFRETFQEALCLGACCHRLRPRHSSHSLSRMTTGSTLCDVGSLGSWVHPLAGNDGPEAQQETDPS

MC2 = MC2 (UniProt Q01718 1-297); assay: cell-based or functional assay
MC2, sequence (Q01718 whole entry): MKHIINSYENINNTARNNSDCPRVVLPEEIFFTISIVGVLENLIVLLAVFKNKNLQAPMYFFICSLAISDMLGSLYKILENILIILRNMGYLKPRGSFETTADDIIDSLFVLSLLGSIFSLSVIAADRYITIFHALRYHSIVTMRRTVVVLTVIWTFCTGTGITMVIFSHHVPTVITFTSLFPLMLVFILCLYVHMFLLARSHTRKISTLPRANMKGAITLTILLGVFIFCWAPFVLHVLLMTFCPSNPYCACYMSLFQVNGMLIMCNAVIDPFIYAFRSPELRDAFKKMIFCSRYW

[3] = target: Motilin (GPCR target; motilin receptor) (UniProt O43193 1-412, limits assumed); assay: cell-based or functional assay
Motilin (GPCR target; motilin receptor), sequence (O43193 whole entry): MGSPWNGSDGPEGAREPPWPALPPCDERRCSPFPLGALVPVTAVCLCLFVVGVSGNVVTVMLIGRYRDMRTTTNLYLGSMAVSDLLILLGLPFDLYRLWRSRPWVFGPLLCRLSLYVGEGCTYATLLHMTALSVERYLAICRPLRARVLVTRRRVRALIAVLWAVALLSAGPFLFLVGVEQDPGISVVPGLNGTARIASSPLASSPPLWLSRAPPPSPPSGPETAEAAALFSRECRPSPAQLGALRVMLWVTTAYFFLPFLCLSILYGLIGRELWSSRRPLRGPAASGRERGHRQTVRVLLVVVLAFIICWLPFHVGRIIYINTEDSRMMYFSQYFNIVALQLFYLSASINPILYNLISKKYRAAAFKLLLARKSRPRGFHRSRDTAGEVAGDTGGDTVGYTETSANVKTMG

[4] = target: T1, MAS-related G-protein-coupled receptor …; assay: cell-based or functional assay; remark: listed apart in the source

Molecule: CC(C)C[C@@H](NC(=O)CNC(=O)CN)C(=O)O
- blood glucose [1]: lower blood glucose
- calcium mobilization activity (MRGD): active

Molecule: Gly-Gly-[dL] [DT-110, tripeptide glycine-glycine-D-leucine (GGdL)]
- percent activation (calcium flux, GPCRProfiler), DT-110 @ 1.25 mM, Avg. (MC4): -0.5%
- percent activation (calcium flux, GPCRProfiler), DT-110 @ 1.25 mM, n1 (MC4): 3%
- percent activation (calcium flux, GPCRProfiler), DT-110 @ 1.25 mM, n2 (MC4): -4%
- percent activation (calcium flux, GPCRProfiler), DT-110 @ 12.5 mM, Avg. (MC4): 3.4%
- percent activation (calcium flux, GPCRProfiler), DT-110 @ 12.5 mM, n1 (MC4): -0.2%
- percent activation (calcium flux, GPCRProfiler), DT-110 @ 12.5 mM, n2 (MC4): 7%
- percent activation (calcium flux, GPCRProfiler), DT-110 @ 1.25 mM, Avg. (MC5): 0%
- percent activation (calcium flux, GPCRProfiler), DT-110 @ 1.25 mM, n1 (MC5): 0.7%
- percent activation (calcium flux, GPCRProfiler), DT-110 @ 1.25 mM, n2 (MC5): -0.8%
- percent activation (calcium flux, GPCRProfiler), DT-110 @ 12.5 mM, Avg. (MC5): -0.3%
- percent activation (calcium flux, GPCRProfiler), DT-110 @ 12.5 mM, n1 (MC5): -0.6%
- percent activation (calcium flux, GPCRProfiler), DT-110 @ 12.5 mM, n2 (MC5): 0%
- percent activation (calcium flux, GPCRProfiler), DT-110 @ 1.25 mM, Avg. (MCHR1): 0.4%
- percent activation (calcium flux, GPCRProfiler), DT-110 @ 1.25 mM, n1 (MCHR1): 0.2%
- percent activation (calcium flux, GPCRProfiler), DT-110 @ 1.25 mM, n2 (MCHR1): 0.7%
- percent activation (calcium flux, GPCRProfiler), DT-110 @ 12.5 mM, Avg. (MCHR1): -0.1%
- percent activation (calcium flux, GPCRProfiler), DT-110 @ 12.5 mM, n1 (MCHR1): -0.5%
- percent activation (calcium flux, GPCRProfiler), DT-110 @ 12.5 mM, n2 (MCHR1): 0.3%
- percent activation (calcium flux, GPCRProfiler), DT-110 @ 1.25 mM, Avg. [2]: 69.2%
- percent activation (calcium flux, GPCRProfiler), DT-110 @ 1.25 mM, n1 [2]: 76.5%
- percent activation (calcium flux, GPCRProfiler), DT-110 @ 1.25 mM, n2 [2]: 62%
- percent activation (calcium flux, GPCRProfiler), DT-110 @ 12.5 mM, Avg. [2]: 64.5%
- percent activation (calcium flux, GPCRProfiler), DT-110 @ 12.5 mM, n1 [2]: 60.7%
- percent activation (calcium flux, GPCRProfiler), DT-110 @ 12.5 mM, n2 [2]: 68.3%
- percent activation (calcium flux, GPCRProfiler), DT-110 @ 1.25 mM, Avg. (MRGX2): -0.2%
- percent activation (calcium flux, GPCRProfiler), DT-110 @ 1.25 mM, n1 (MRGX2): 0%
- percent activation (calcium flux, GPCRProfiler), DT-110 @ 1.25 mM, n2 (MRGX2): -0.4%
- percent activation (calcium flux, GPCRProfiler), DT-110 @ 12.5 mM, Avg. (MRGX2): 0%
- percent activation (calcium flux, GPCRProfiler), DT-110 @ 12.5 mM, n1 (MRGX2): 0.4%
- percent activation (calcium flux, GPCRProfiler), DT-110 @ 12.5 mM, n2 (MRGX2): -0.4%
- percent activation (calcium flux, GPCRProfiler), DT-110 @ 1.25 mM, Avg. (NMUR1): 0.5%
- percent activation (calcium flux, GPCRProfiler), DT-110 @ 1.25 mM, n1 (NMUR1): 1.3%
- percent activation (calcium flux, GPCRProfiler), DT-110 @ 1.25 mM, n2 (NMUR1): -0.4%
- percent activation (calcium flux, GPCRProfiler), DT-110 @ 12.5 mM, Avg. (NMUR1): -0.1%
- percent activation (calcium flux, GPCRProfiler), DT-110 @ 12.5 mM, n1 (NMUR1): -0.7%
- percent activation (calcium flux, GPCRProfiler), DT-110 @ 12.5 mM, n2 (NMUR1): 0.5%
- percent activation (calcium flux, GPCRProfiler), DT-110 @ 1.25 mM, Avg. (MC2): -0.7%
- percent activation (calcium flux, GPCRProfiler), DT-110 @ 1.25 mM, n1 (MC2): 0.6%
- percent activation (calcium flux, GPCRProfiler), DT-110 @ 1.25 mM, n2 (MC2): -2%
- percent activation (calcium flux, GPCRProfiler), DT-110 @ 12.5 mM, Avg. (MC2): -1%
- percent activation (calcium flux, GPCRProfiler), DT-110 @ 12.5 mM, n1 (MC2): -1%
- percent activation (calcium flux, GPCRProfiler), DT-110 @ 12.5 mM, n2 (MC2): -0.9%
- percent activation (calcium flux, GPCRProfiler), DT-110 @ 1.25 mM, Avg. [3]: -0.3%
- percent activation (calcium flux, GPCRProfiler), DT-110 @ 1.25 mM, n1 [3]: -0.3%
- percent activation (calcium flux, GPCRProfiler), DT-110 @ 1.25 mM, n2 [3]: -0.3%
- percent activation (calcium flux, GPCRProfiler), DT-110 @ 12.5 mM, Avg. [3]: -0.4%
- percent activation (calcium flux, GPCRProfiler), DT-110 @ 12.5 mM, n1 [3]: -0.3%
- percent activation (calcium flux, GPCRProfiler), DT-110 @ 12.5 mM, n2 [3]: -0.5%
- EC50, calcium mobilization in MRGD cells (FIG. 12) [4]: ~360 µM
- EC50, calcium mobilization in MRGD over-expressing cells (FIG. 5) [4]: 76 µM
- EC50, calcium mobilization in the MRGD cell line (FIG. 8) [4]: 161 µM
